In patent US20250263499A1 (SHENGHE CHINA BIOPHARMACEUTICAL, published 2025):

Experiments:
[1] = target: T1, CD24 on tumor cells (MCF7, SKOV3, HT55, huCD24-MDA-MB-231, CD24-SKOV3) (human, UniProt P25063 27-59); experiment: flow cytometry on SKOV3 cells (MFI); table under the graph prints no unit, unit from the x axis label
T1 construct: whole, on cells; The cell line of each result is named under assay
T1 chain (looked up): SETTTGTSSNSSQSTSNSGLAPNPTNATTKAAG
Procedure: (§1) The commercial antibody SN3 (ABCOM; ab134375) and IgG1 isotype control were used as control. MCF7, SKOV3, HT55 or huCD24-MDA-MB-231 cells were taken and transferred to a centrifuge tube, and centrifuged at 1000 rpm for 5 min. 100 μL of MCF7, SKOV3, HT55, or huCD24-MDA-MB-231 cells were spread in a 96 U plate, respectively, and washed twice with PBS. 100 μL of the fusion supernatant was added, and diluted for 8 gradients. Cells were incubated at 4° C. for 60 minutes, and then washed twice with excess FACS buffer. Cells were resuspended in 100 μL of FACS buffer and sheep anti-mouse secondary antibody-FITC (ABCOM; ab6785) was added to the samples, incubated for 30 minutes and washed twice with excess FACS buffer. Cells were fixed in fixation buffer and subsequently analyzed by flow cytometry.
(§2) The binding activity of the chimeric antibodies CH-01 and CH-02 and tumor cells was detected according to the method of Example 6.

[2] = target: T1, CD24 on tumor cells (MCF7, SKOV3, HT55, …); experiment: flow cytometry on MCF7 cells (MFI); table under the graph prints no unit, unit from the x axis label
Procedure: as §1, §2

[3] = target: T2, human CD24 protein (ACRO) (human, UniProt P25063 27-59); experiment: BLI (ForteBio Octet RED96e), antibody immobilised, human CD24 protein as analyte
T2 construct: also called analyte human CD24 protein
T2 chain (looked up): T1 chain (looked up)
Procedure: ForteBio […] (BLI) was used to detect the affinity of humanized antibodies. The sample to be tested (solidified) was diluted to 20 μg/mL with 0.02% PBST (buffer). The analyte human CD24 protein (ACRO) was diluted to 100 nM with 0.02% PBST (buffer) as the initial concentration, and then diluted by double gradient for 7 gradients starting from this concentration, and a negative control (buffer) was performed.
The molecular interaction analysis instrument (ForteBio; Octet RED96e) was operated, and 200 μL of curing buffer (0.02% PBST) was added to a pre-wetted plate, and the sensor was pre-wetted for 5-10 min. Diluted samples and other reagents for assay were added into wells in the sample plate corresponding to the pre-wetted sensor.

EC50 [1]: 1.2 µg/mL
EC50 [2]: 1.69 µg/mL
Kd [3]: 8.08 nM
B1: chimeric antibody CH-01 (antibody, human IgG1, kappa, V domains shown)
VH: QIQLVQSGPELKKPGETVKISCKASGYIFTDYAIHWVKQAPGKGLKWMGFINTATGEPTYADDFKGRFAFSLETSASTAYLQVNSLKNEDTATYFCTSGVHWGQGTTLTVSS
VL: QIVLTQSPAIMSASLGEEITLTCSASSSVSSMHWYQQKSGTSPKLLIYSTSNLASGVPSRFSGSGSGTFYSLTISSVESEDAADYYCHHWTSYMYTFGGGTKLEIKR
notes: ms-01 variable regions on a human IgG framework, expressed in CHO cells
